Assay results: patent publication US20090325168A1 (ONCOIMMUNIN, published 2009)
Square brackets hold non-standard residues; d marks the D form. Ends that are not written are not given here. * marks the point of attachment. 5‑TMR = 5'-carboxytetramethylrhodamine, CN(C)c1ccc2c(-c3ccc(C(=O)*)cc3C(=O)[O-])c3ccc(=[N+](C)C)cc-3oc2c1; rhodamine X acetamide = R492, linked via the cysteine sulfhydryl; Fmoc = O=C(OCC1c2ccccc2-c2ccccc21)*; Nle = CCCC[C@H](N)C(=O)O; Aib = CC(C)(N)C(=O)O; Ahx = NCCCCCC(=O)O

T1: CPP32 protease (human (Jurkat cells), UniProt P42574 29-277)
T1 sequence (looked up): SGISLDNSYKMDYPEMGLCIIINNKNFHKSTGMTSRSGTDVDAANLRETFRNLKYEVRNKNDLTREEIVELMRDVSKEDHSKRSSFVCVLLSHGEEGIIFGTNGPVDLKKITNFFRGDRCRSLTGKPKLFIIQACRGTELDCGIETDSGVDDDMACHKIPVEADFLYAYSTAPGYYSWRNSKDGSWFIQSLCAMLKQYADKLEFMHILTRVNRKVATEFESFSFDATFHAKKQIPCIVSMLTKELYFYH


What was measured:
[1] = biological target: elastase; assay: cell-based or functional assay
[2] = biological target: T1, CPP32 protease; assay: cell-based or functional assay

increase in fluorescence at 589 nm after treatment with elastase [1] [fold]	increase in fluorescence within the first 1000 seconds of exposure to elastase [1] [fold]	increase in fluorescence intensity in anti-Fas-activated Jurkat cells (flow cytometry) [2] [fold]	Binder
> 10	> 5		{5‑TMR}-DAIP[Nle]SIPC(rhodamine X acetamide) [D-NorFES-A protease indicator, F1-Asp-Ala-Ile-Pro-Nle-Ser-Ile-Pro-Cys-F2]
		≤ 10	Fmoc-K(carboxytetramethylrhodamine)D[Aib][Ahx]GDEVDGIDG[Ahx]PK(carboxytetramethylrhodamine)GY [Fm-CGD2D, Fm-K[F1]DBJGDEVDGIDGJPK[F1]GY (compound 11 of Table 12)]
